Earlier results on 1 substance are cited in paper PMC5371383.

The target in data set [1] is MC1R (Gallus gallus) (UniProt P55167).
The target in data set [2] is MC1R (Homo sapiens) (UniProt Q01726).
Chain of UniProt Q01726 (Q01726 whole entry): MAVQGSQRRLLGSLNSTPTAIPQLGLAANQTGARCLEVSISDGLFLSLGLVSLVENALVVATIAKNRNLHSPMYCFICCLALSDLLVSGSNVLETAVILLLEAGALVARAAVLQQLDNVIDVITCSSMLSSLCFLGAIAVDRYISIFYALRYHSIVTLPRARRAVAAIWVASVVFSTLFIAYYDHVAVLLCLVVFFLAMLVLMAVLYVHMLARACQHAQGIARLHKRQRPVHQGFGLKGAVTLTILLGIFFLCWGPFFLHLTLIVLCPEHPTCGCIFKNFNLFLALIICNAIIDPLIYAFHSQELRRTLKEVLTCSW

Chain of UniProt P55167 (P55167 whole entry): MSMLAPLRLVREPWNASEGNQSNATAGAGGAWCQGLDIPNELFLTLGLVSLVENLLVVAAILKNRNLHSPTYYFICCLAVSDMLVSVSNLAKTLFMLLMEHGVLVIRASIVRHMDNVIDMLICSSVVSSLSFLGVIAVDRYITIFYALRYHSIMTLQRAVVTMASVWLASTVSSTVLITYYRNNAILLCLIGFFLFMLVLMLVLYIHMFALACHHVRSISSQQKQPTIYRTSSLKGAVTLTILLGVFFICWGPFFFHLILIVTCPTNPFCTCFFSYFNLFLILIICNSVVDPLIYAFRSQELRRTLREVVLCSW

As for α-MSH (from UniProt P01189), the Kd is 0.363 µM in data set [1] and 0.00021 µM in data set [2].
